According to article PMC11418127, “Structures of LIG1 uncover the mechanism of sugar discrimination against 5′-RNA-DNA junctions during ribonucleotide excision repair”:

Assays:
[1] = target: LIG1 EE/AA (C-terminal, Δ261) (UniProt P18858 262-919, E346A;E592A); experiment: X-ray crystallography; AMP covalently bound to K568 (step 1); 1 mM ATP, 1 mM EDTA; Crystallization: 20 mM Tris-HCl pH 7.0, 200 mM NaCl, 1 mM DTT, 1 mM EDTA, 1 mM ATP, LIG1 27 mg/ml, DNA:protein 1.4:1, hanging drop at 20 °C; conditions: protein: recombinant; tags: 6xHis; nicked duplex: 18-nt template, 11-nt upstream, 7-nt downstream; blunt outer ends
Sequence of LIG1 EE/AA (C-terminal, Δ261) (P18858 262-919 E346A/E592A): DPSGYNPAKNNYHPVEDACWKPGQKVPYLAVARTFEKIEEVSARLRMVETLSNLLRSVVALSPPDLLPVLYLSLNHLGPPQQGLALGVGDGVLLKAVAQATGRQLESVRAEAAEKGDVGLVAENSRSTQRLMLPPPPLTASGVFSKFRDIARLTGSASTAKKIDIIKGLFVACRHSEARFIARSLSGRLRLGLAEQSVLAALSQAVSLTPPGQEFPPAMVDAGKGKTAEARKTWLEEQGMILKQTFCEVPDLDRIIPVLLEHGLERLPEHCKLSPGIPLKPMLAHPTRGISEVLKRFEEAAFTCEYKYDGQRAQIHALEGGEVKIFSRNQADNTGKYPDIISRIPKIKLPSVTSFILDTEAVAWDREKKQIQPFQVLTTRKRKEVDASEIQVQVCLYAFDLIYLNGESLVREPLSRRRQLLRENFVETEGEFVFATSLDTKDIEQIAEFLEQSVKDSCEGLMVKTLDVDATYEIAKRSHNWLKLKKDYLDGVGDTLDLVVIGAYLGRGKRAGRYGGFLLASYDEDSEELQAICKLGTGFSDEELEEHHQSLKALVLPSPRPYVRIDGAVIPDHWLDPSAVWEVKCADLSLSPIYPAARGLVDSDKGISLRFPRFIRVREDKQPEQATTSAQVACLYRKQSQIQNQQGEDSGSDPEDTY

[2] = target: LIG1 WT (C-terminal, Δ261) (UniProt P18858 262-919); experiment: as above; conditions: protein: recombinant; tags: 6xHis; nicked duplex: 18-nt template, 11-nt upstream, 7-nt downstream; blunt outer ends
Sequence of LIG1 WT (C-terminal, Δ261) (P18858 262-919, stated change not applied): as the sequence (P18858 262-919 E346A/E592A) above, with A85E, A331E counted along it

B1: nick DNA 5'-rG:C (mixed)
DNA 1: GTCCGACCACGCATCAGC
DNA 2: GCTGATGCGTG
DNA 3: GTCGGAC
modifications: ribonucleotide rG at position 1 of downstream strand (strand 3); 5'-phosphate on strand 3
binding result [1]: binds
binding result [2]: binds
